Source: US20260042854A1, “ANTI-GLP-1R ANTIBODIES AND USES THEREOF” (SCIWIND BIOSCIENCES USA CO., LTD, priority 2022, published 2026)

How the values were obtained:
[1] = biological target: hGLP-1R on the cell membrane (HEK293 cells overexpressing hGLP-1R) (human) (UniProt P43220); experiment: cell-based or functional assay
[2] = biological target: monkey GLP-1R (JN033215.1) on HEK293 cells (monkey); experiment: cell-based or functional assay

Chain of hGLP-1R on the cell membrane (HEK293 cells overexpressing hGLP-1R) (human) (P43220 24-463): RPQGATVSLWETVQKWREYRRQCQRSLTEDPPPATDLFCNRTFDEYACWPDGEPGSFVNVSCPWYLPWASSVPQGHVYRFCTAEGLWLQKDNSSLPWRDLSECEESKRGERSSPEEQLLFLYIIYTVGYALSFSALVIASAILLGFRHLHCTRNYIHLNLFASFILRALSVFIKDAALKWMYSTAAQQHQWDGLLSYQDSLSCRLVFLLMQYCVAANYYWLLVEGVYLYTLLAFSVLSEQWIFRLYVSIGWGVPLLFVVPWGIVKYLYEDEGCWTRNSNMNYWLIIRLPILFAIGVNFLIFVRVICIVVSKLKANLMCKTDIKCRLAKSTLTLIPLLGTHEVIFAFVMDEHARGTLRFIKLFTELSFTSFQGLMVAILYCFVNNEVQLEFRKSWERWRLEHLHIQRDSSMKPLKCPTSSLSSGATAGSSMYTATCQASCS

IC50, inhibition of GLP-1 (2.5 ng/ml) activity in hGLP-1R-CRE-Luciferase-HEK293 reporter gene assay [1]: 17.2 nM
IC50, inhibition of GLP-1 (2.5 ng/mL) activity in monkey GLP-1R-CRE-Luciferase-HEK293 reporter gene assay [2]: 13.8 nM
B1: P16891 (antibody, human IgG4 S228P, kappa)
heavy: QVQLVQSGAEMKKPGASVKVSCKTSGYRFSTYVISWVRQTPGQGLEWMGWISPYTGDIDYAQKFQGRVTITADESTSTAYMELSRLRSDDTAVYYCAREREGYNFPGMDVWGQGTTVTVSSASTKGPSVFPLAPCSRSTSESTAALGCLVKDYFPEPVTVSWNSGALTSGVHTFPAVLQSSGLYSLSSVVTVPSSSLGTKTYTCNVDHKPSNTKVDKRVESKYGPPCPPCPAPEFLGGPSVFLFPPKPKDTLYITREPEVTCVVVDVSQEDPEVQFNWYVDGVEVHNAKTKPREEQFNSTYRVVSVLTVLHQDWLNGKEYKCKVSNKGLPSSIEKTISKAKGQPREPQVYTLPPSQEEMTKNQVSLTCLVKGFYPSDIAVEWESNGQPENNYKTTPPVLDSDGSFFLYSRLTVDKSRWQEGNVFSCSVMHEALHNHYTQKSLSLSLGK
light: DIQLTQSPSFLSASVGDRVTITCRASQGISSYLAWYQQKPGRAPKLLIYSASTLQRGVPSRFSGSGSGTDFTLTISSLQPEDYATYYCQQAESFPPSFGPGTKVDIKRTVAAPSVFIFPPSDEQLKSGTASVVCLLNNFYPREAKVQWKVDNALQSGNSQESVTEQDSKDSTYSLSSTLTLSKADYEKHKVYACEVTHQGLSSPVTKSFNRGEC
